Laboratory results from patent publication EP3620472A1.

Experiments:
[1] = molecular target: cynomolgus PAI-1 (cynomolgus (Macaca fascicularis)); assay: crystal structure, heavy chain, average of 2 complexes
[2] = molecular target: recombinant mature human PAI-1 (24-402) stabilized in active conformation (N150H, K154T, Q319L, M354I) (human) (UniProt P05121); assay: crystal structure, heavy chain, average of 4 complexes
[3] = molecular target: cynomolgus PAI-1 (cynomolgus (Macaca fascicularis)); assay: crystal structure, light chain, average of 2 complexes
[4] = molecular target: recombinant mature human PAI-1 (24-402) stabilized in active conformation (N150H, K154T, Q319L, M354I) (human) (UniProt P05121); assay: crystal structure, light chain, average of 4 complexes

surface area of the interaction [1]: 703 Å^2
surface area of the interaction [2]: 674 Å^2
surface area of the interaction [3]: 360 Å^2
surface area of the interaction [4]: 372 Å^2
B1: Fab A44V11 (Fab, V domains shown)
VH: QMTLKESGPTLVKPTQTLSLTCSVSGDSMTNGYWNWIRQFPGKALEYMGYITYSGSTYYNPSLKGRITITRDTSKNQYYLTLSSVTTVDTATYYCARWHYGSPYYFDYWGQGTTLTVSS
VL: DIKMTQSPSSLSASVGDRVTITCKASQDINSYLSWLQQKPGKSPKTLIYRAQRSVEGVPSRFSGSGSGQDYSLTISSLQPEDLGIYYCLQYDEFPPTFGGGTKLEIK
